Data: patent publication US20190309034A1 (Boehringer Ingelheim, published 2019)

B1: 210D9B8 (antibody, V domains shown)
VH: QVQLQQPGTEFVKPGASVKLSCEASGYTFITYWMHWVKQRPGRGLEWIGGIDPNSGVIKYNEKFKSKATLTVDKPSSTAYMQLSSLTSEDSAVYYCARGEDLLIRTDAMDYWGQGTSVTVSS
VL: DIVMTQSQKFVSTTLGDRVSITCKASQSVGIAVAWYQQKPGHSPNLLIFSTSNRYTGVPDRFTGSGSGTDFTLTISDVQSEDLADYFCQQYSRYPRTFGGGTKLEIK
notes: Mouse lead antibody (hybridoma)
B2: 235F5B9 (antibody, V domains shown)
VH: QVQLQQPGAELVKPGASVKLSCKASGYSFSTFFIHWIQQRPGRGLEWIGRIDPNSGATKYNEKFESKATLTVDKPSSTAYMHLSSLTSEDSAVYYCARGEDLLIRTDALDYWGQGTSVTVSS
VL: DIVMTQSQKIMSTTVGDRVSITCKASQNAGIDVAWFQQKPRQSPKLLIFSKSNRYTGVPDRFAGSGSGTDFTLTIYNVQSEDLADYFCLQYRSYPRTFGGGTKLEIK
notes: as for B1
B3: Ch-235F5B9 (antibody, V domains shown)
VH: QVQLQQPGAELVKPGASVKLSCKASGYSFSTFFIHWIQQRPGRGLEWIGRIDPNSGATKYNEKFESKATLTVDKPSSTAYMHLSSLTSEDSAVYYCARGEDLLIRTDALDYWGQGTSVTVSS
VL: DIVMTQSQKIMSTTVGDRVSITCKASQNAGIDVAWFQQKPRQSPKLLIFSKSNRYTGVPDRFAGSGSGTDFTLTIYNVQSEDLADYFCLQYRSYPRTFGGGTKLEIK
B4: Reference 2 (antibody, human IgG1, lambda, V domains shown)
VH: QVQLQQSGAEVKKPGSSVRVSCKASGGTFNNNAINWVRQAPGQGLEWMGGIIPMFGTAKYSQNFQGRVAITADESTGTASMELSSLRSEDTAVYYCARSRDLLLFPHHALSPWGRGTMVTVSS
VL: SSELTQDPAVSVALGQTVRVTCQGDSLRSYYASWYQQKPGQAPVLVIYGKNNRPSGIPDRFSGSSSGNTASLTITGAQAEDEADYYCSSRDSSGNHWVFGGGTELTVLG
notes: Comparator anti-BAFF antibody
B5: 13J018-1A4 (antibody, V domains shown)
VH: QVQLQQSGPEVVRPGASVKISCKAPDHIFSIHWMQWVRQRPGPGLEWIGEIFPGSGTTDYNEKFKGKATVTVDRGSRSAYMQFNSLTSEDSAVYFCASGAFDYWGQGTTLTVSS
VL: DIQMTQSPSSLSASLGERVSLTCRASQDIGNRLNWLQQEPDGTIKRLIYATSSLDSGVPKRFSGSRSGSDYSLTISSLESEDFVDYYCLQYASSPFTFGTGTKLEIK
notes: as for B1
B6: Ch-13J0-18-1A4 (antibody, V domains shown)
VH: QVQLQQSGPEVVRPGASVKISCKAPDHIFSIHWMQWVRQRPGPGLEWIGEIFPGSGTTDYNEKFKGKATVTVDRGSRSAYMQFNSLTSEDSAVYFCASGAFDYWGQGTTLTVSS
VL: DIQMTQSPSSLSASLGERVSLTCRASQDIGNRLNWLQQEPDGTIKRLIYATSSLDSGVPKRFSGSRSGSDYSLTISSLESEDFVDYYCLQYASSPFTFGTGTKLEIK
B7: Reference 1 (antibody, human IgG4 S228P, kappa, V domains shown)
VH: QVQLQQWGAGLLKPSETLSLTCAVYGGSFSGYYWSWIRQPPGKGLEWIGEINHSGSTNYNPSLKSRVTISVDTSKNQFSLKLSSVTAADTAVYYCARGYYDILTGYYYYFDYWGQGTLVTVSS
VL: EIVLTQSPATLSLSPGERATLSCRASQSVSRYLAWYQQKPGQAPRLLIYDASNRATGIPARFSGSGSGTDSTLTISSLEPEDFAVYYCQQRSNWPRTFGQGTKVEIKR
notes: Comparator anti-BAFF antibody

What was measured:
[1] = biological target: T1, Recombinant soluble trimeric human BAFF (furin-cleaved human BAFF 134-285) (human, UniProt Q9Y275 134-285); test: SPR, antibody captured on Protein A/G, soluble trimeric BAFF flowed over, 1:1 Langmuir global fit, apparent affinity (at detection limit)
T1 construct: Made from His-tagged BAFF(72-285) by furin cleavage; trimeric status confirmed by analytical ultracentrifugation; also called Soluble trimeric huBAFF; soluble trimeric BAFF
Description: (§1) Apparent binding affinities were evaluated using surface plasmon resonance where the antibodies were captured at different surface densities on a Protein A/G surface. Soluble trimeric BAFF at different concentrations were flowed over the captured antibody. Clinical reference antibodies (Reference 1 comprising SEQ ID NOS: 98 and 116) and Reference 2 comprising SEQ ID NOS: 99 and 117) were used as comparators.

[2] = biological target: T2, Recombinant soluble 60-mer human BAFF (His-HuBAFF 134-285) (human, UniProt Q9Y275 134-285); test: cell-based or functional assay
[3] = biological target: T1, Recombinant soluble trimeric human BAFF …; test: cell-based or functional assay
[4] = biological target: T3, Human membrane-bound BAFF (mbBAFF) (human, UniProt Q9Y275 1-285); test: cell-based or functional assay
[5] = biological target: T1, Recombinant soluble trimeric human BAFF …; test: cell-based or functional assay; remark: listed apart in the source
[6] = biological target: T2, Recombinant soluble 60-mer human BAFF …; test: cell-based or functional assay; remark: listed apart in the source
[7] = biological target: T1, Recombinant soluble trimeric human BAFF …; test: cell-based or functional assay; remark: listed apart in the source
[8] = biological target: T3, Human membrane-bound BAFF (mbBAFF); test: cell-based or functional assay; remark: listed apart in the source
[9] = biological target: T1, Recombinant soluble trimeric human BAFF …; test: SPR, antibody captured on Protein A/G, soluble trimeric BAFF flowed over, 1:1 Langmuir global fit, apparent affinity
Description: as §1

Row | Binder | Kd [1] [nM] | Soluble 60-mer huBAFF (4.2 pM) Neutralization IC90 [2] [pM] | Soluble trimeric huBAFF (52 pM) Neutralization IC90 [3] [pM] | IC50 (neutralisation of mbBAFF activation of human BAFFR, fixed mbBAFF-CHO mixed with luciferase reporter BAFFR-CHO cells) [4] [nM] | IC50 (neutralisation of soluble trimeric huBAFF activation of human BAFFR, luciferase reporter CHO cells) [5] [nM] | IC90 (neutralisation of soluble trimeric huBAFF activation of human BAFFR, luciferase reporter CHO cells) [5] [nM] | Soluble 60-mer huBAFF (4 pM) Neutralization IC50 [6] [pM] | Soluble 60-mer huBAFF (4 pM) Neutralization IC90 [6] [pM] | Soluble trimeric huBAFF (50 pM) Neutralization IC90 [7] [pM] | Potent mbBAFF Neutralization IC50 [8] [nM] | Potent mbBAFF Neutralization IC90 [8] [nM] | Kd [9] [nM]
1 | B1 | < 0.01 | 14 | 156 | – | – | – | – | – | – | – | – | –
2 | B2 | < 0.01 | 2.2 | 107 | 0.18 | 0.11 | 0.21 | – | – | – | – | – | –
3 | B3 | – | – | – | 0.19 | 0.13 | 0.27 | – | – | – | – | – | –
4 | B4 | – | – | 1000 | 8.6 | 0.22 | – | 38300 | 198000 | 1000 | 2.18 | 151 | 0.0222
5 | B5 | < 0.01 | 23 | 305 | 0.29 | 0.11 | 0.35 | – | – | – | – | – | –
6 | B6 | – | – | – | 0.41 | 0.16 | 0.45 | – | – | – | – | – | –
7 | B7 | < 0.01 | 21 | 290 | 0.21 | 0.12 | – | 40 | 102 | 290 | 0.177 | 1.05 | –
